Measurements reported in PMC4297295, “Structural Conservation Despite Huge Sequence Diversity Allows EPCR Binding by the PfEMP1 Family Implicated in Severe Childhood Malaria” (Cell Host & Microbe, 2015).

T1: endothelial protein C receptor (EPCR), extracellular domain, biotinylated on the N-terminal BAP tag (human, UniProt Q9UNN8 18-210, biotin attached to the N-terminal BAP tag (BirA))
T1 construct: also called biotinylated recombinant EPCR; ECPR
T1 sequence: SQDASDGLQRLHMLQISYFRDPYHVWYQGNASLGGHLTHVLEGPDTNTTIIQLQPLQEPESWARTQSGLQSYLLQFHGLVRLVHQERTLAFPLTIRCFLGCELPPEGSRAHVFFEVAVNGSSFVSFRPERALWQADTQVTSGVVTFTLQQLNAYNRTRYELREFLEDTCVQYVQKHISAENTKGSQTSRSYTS


target: endothelial protein C receptor with an N-terminal biotin (human) (UniProt Q9UNN8); assay: SPR; Biacore T200; EPCR biotinylated with BirA and coupled to a biotin capture chip to 150 RU; binding partners injected for 240 s, dissociation 300 s; 1:1 interaction model; conditions: not given

Row | Molecule | Kd [nM] | fold reduction of the affinity against wild-type HB3var03 CIDRα1 [fold] | fold change in the dissociation rate constant against wild-type HB3var03 CIDRα1 [fold] | fold effect on the affinity against wild-type HB3var03 CIDRα1 [fold]
1 | HB3var03 CIDRα1.4 F655Y (domain or fragment) | < 5 |  |  | 
2 | HB3var03 CIDRα1.4 F655L (domain or fragment) | < 5 |  |  | 
3 | HB3var03 CIDRα1.4 F656V (domain or fragment) | < 5 | 4 |  | 
4 | HB3var03 CIDRα1.4 Q657K (domain or fragment) |  | 200 |  | 
5 | HB3var03 CIDRα1.4 F656A (domain or fragment) |  |  | 100 | 35
6 | HB3var03 CIDRα1.4 F656Y (domain or fragment) | < 5 | 4 |  | 

target: T1, endothelial protein C receptor (EPCR), …; assay: SPR; conditions: both partners purified

Row | Molecule | Kd [nM] | koff [s⁻¹] | kon [M⁻¹ s⁻¹]
7 | CIDRα1.8b domain 1702-3 (patient isolate 1702) (domain or fragment) PDCIVVCDYKGCKENKNDENCKSKRTYSLPPDVNSTEIEVLFSGDNQEDIVEKLSSFCKNTNNENGENVEKWECYYESEHNNKCKMTSPKHKDEKRPTVMIFDEFFDFWVTHLIKDTIKWESDINDCINNTNVTDCDSACNENCKCFDEWVEKKEVEWGNVKKVLGNRSENLNIYYNKLNGIFSGFFFGVMHELKKKEAKQGVKAEEAQEAEETQEAQEEEAKWNKLTAKLQEIIDSSKGKADTANSQDAIKPLLEYIKETATTCIDNNSLAVENCPKTKINPC | 6 | 2.28e-05 | 3640
8 | CIDRα1.7 domain of PfEMP1 IT4var22 (domain or fragment, also called CIDRa1.7 IT4var22_IT4; IT4var22 (1.7)) PYCGLDCGGKTCTAKQEIYPDCVYNGAYEPPNGAETTEITVLYSADQEGDISNKLSEFCNDENNKNSQKWQCYYVSSENNGCKMEKKNANHTPEVKITKFHNFFEMWVTYLLTETITWKDKLKTCMNNTKTADCIHECNKNCVCFDKWVKQKEDEWNSIKKLFTKEKKMPKQYYGNINIYFESFFFHVMKKLNKEAKWNKLMDELRNKIELSKGNEGTKDLQDAIELLLEYLKEKSTICKDNNTNEACDPTVDPTKNPC | 17 | 0.00105 | 61300
9 | CIDRα1.6a domain of PfEMP1 PFD1235w (domain or fragment, also called CIDRa1.6a PFD1235w_3D7; PFD1235w (1.6a)) PECGVQCSGTTCTPKKVIHPNCKDKETYEPGDAKTTDITVLYSGDEEGDIAQKLQDFCNDKNKENDENYEKWQCYYKSSEINKCQMTPSSHKVPKHGYIMSFYAFFDLWVKNLLIDSINWKNDLTNCINNTNVTDCKNDCNTNCKCFENWAKTKENEWKKVKTIYKNENGNTNNYYKKLNNHFQGYFFHVMKELNKEEKWYKLMEDLKEKIDSSNLKNGTKDSEGAIKVLFDHLKDIAERCIDNNSKDSC | 8.8 | 6.62e-05 | 7550
10 | CIDRα1.7 domain 1965-8 (patient isolate 1965) (domain or fragment) PHCGVDCNGKKCTLKSDNDPQCVNKLKYEPPYGVKPTEITVLYSADQEGDISKKLSEFCNDEKKINSKNIETWKCYYKSTYNNACKMDKNSKNHTPEVKITKFHNFFEMWIVYLLTETITWNDKLKTCMNNIKTTDCIDECNTNCVCFDKWVKQKGKEWNSIKKLFIKEQKNPKQNYGNINIYFESFFFHVMDKLNHDEAKWNELMNELKQIIDSSKANTDNKNLQDAIKVLFDHLKEIATICKDNNTNEACEDSKKETQNPC | 3.5 | 0.00021 | 59200
11 | CIDRα1.8b domain 2053-3 (patient isolate 2053) (domain or fragment) PICGVKCENKSCTDKENDDDCKNKKKYDPPKGVTPIDIPILYSGDKQGDITKKLEDFCYNRTKENEKTYQNWKCYYKDSEFNKCKMESKSGKSTTQEKIISFDEFFYLWVNNLLIDSIMWENDIKHCINNTNVTNCKNKCNENCKCFKNWVKKKEEEWTKVKQILGNRSENLNNYYNKLNSLFKGFFFEVVYKFNNKEEKWNKLTEKLEQKIGSSKGKEGVENPKDAIELLLDHLKENAITCKDNNSLEEDKNCPKIKINPC | 4 | 7.65e-05 | 20200
12 | CIDRα1.8b domain GA029_ERS010532 (domain or fragment, also called CIDRa1.8b GA029_ERS010532; GA029 (1.8b)) PDCVVVCERGNCTEKKGDDKCRKKYTYEIPAGMESTKIDILFSGENQEDITEKLRSFCKNTNNENGENIEKWECYYKNEYDNKCKMTSLKREDQKHHDLMSYYEFFDFWVTHLIKDTIKWESDINDCINNTNVTNCNNGCNENCICFEKWVGQKEKEWENVKKVLKNPSENLNNYYNKLNGIFSGFFFGVMHELKKKEAKQGVKVEKAEKSEEAQEAQEEEAKWNKLTAKLEEIIKSHKENTGTGNTQDAIEPLLKYLDENAITCKDNNSLKEDKNCPKTKKNPC | 24.2 | 0.000158 | 6550
13 | CIDRα1.6a domain of PfEMP1 HB3var02 (domain or fragment, also called CIDRa1.6a HB3var02_HB3; HB3var02 (1.6a)) PECGVQCSGTTCTPKKVIHPNCKDKETYEPGDAKTTDITVLYSGDEEGDIAQKLQDFCNDKNKENDENYEKWQCYYKSSEINKCQMTRSSKKVPKHRGVMSFYAFFDLWVKNLLIDSINWKNDLTNCINNTNVTDCNKDCNKNCVCFDQWVIKKEEEWKNVNKVFENKNIDLHDYYNKLNKHFEGYFFHVMKELNKEEKWYKLMEDLKEKIDFSKGKADGKNSEGAIKVLFDHLKEIAEKCIHNNSNESCEASTNRTPNPC | 1400 | 0.00139 | 975
14 | CIDRα1.6b domain GA018_ERS010570 (domain or fragment, also called CIDRa1.6b GA018_ERS010570; GA018 (1.6b)) PYCGLDCVGTECTAKEEIYPDCVYNGEYDPPKDVRPTEINVIDSGNAVNISEKLNDFCTNPTNPNDKIYQKWQCYYKSSKVNKCQMTSLTQTLQKHHYVMTFYIFFDLWVKNLLRDSVKWEIELKDCINNTNVTDCNNKCNKNCVCFDKWVKQKKKEWDSIKKLFKTEKDEMKKYYTNINKNFEFFFFRVMYELNNEEAKWNKLMENLRIKIKSSKRNKRTKDSEGVIKVLFDHLKETATICKDNNTNEACVSSQNATTNPC | 15 | 0.000531 | 35100
15 | CIDRα1.1 domain of PfEMP1 IT4var19 (domain or fragment, also called CIDRa1.1 IT4var19_IT4; IT4var19 (1.1)) PDCVVVCEGGNCKEKTEDDNCRSEIIKKILKYETPTPIDVLYSGKGQGLITKKLEDFCSSTTNYEGTNVQKWKCYNKNKDYNNCEMNISSYKDATDPNVMLSVECFHSWAKNLLIDTIRWEHQLKNCINNTNVTDCTSKCIKNCECYEKWIKEKEKEWPQVKGVLKKKDETSHNYYDKLKDVFDRFLFEVKGALDQDEKGKWDQFTKDLEKKFGPSVESAGTANSQDAIELLLDHLNDNATTCKDNNSLAVENC | 16 | 0.000364 | 22700
16 | CIDRα1.8a domain of PfEMP1 MAL6P1.316 (domain or fragment, also called CIDRa1.8a MAL6P1.316_3D7; MAL6P1.316 (1.8a)) PACVVECDGGKCEEKKNSDGTCIEAQIYTVVRDETPTPIKVLFSGDHQKDITKKLSSFCKNPESENNRDYQTWQCYYKSSDYNNCEMKGSLYKVEGDPNIIVSHECFHLWVQSLLIDTIKWETKLKKCINNTNVTNCYNKCNKNCECFENWVEQKKKEWENVNDVYKDQKQSLGIYYEKLENLFKSNFFQVMKALEGDEKGKWYQFKDDLKKKFEPSEKNTRTTDSQDAIKLILDHLKDNATTCKDNNSLEEDENC | 50 | 0.000828 | 16700
17 | CIDRα1.8a domain GA026_ERS010178 (domain or fragment, also called CIDRa1.8a GA026_ERS010178; GA026 (1.8a)) PDCVVDCKGAKCEQKMKPDGTCEKPQIYTRPKDVTPKIIKVLFSGDNQEDITEKLSSFCSNPKSKIDRNYQTWKCYYKSGHYNICEMKGSLYKYPEHPNDMLSVECFHLWVKNLLIDTIKWETKLKKCINNTNVTDCDNECNKNCECFENWVEQKKKEWEEVRKVYKDQKESLGIYYKKLENLFDTYYFEVMGALENEEKHGKWNQLTAKLKQIIESHKKNRHSGNSQDAIELLLDHLKETATTCKDNNSNESCDVSKDSKTNPC | 48 | 0.000842 | 17700
18 | CIDRα1.6b domain GA019_ERS010031 (domain or fragment, also called CIDRa1.6b GA019_ERS010031; GA019 (1.6b)) PYCGLDCVGKTCTAKQEIYPDCVYNGDYEPPNGAETTEITVLYNDNEGDMSKKLSQFCSNENKENIENYQKWKCYYKDRDDIECEMISSSQKDEKHRKVMIFYNFFDLWVKNLLRDSIKWEIELKDCINNTNVTDCKSVCNVNCECFDKWVKQKEKEWDSIKKLLKKKKNVSKKYYTNINKNFEFFFFRVMYELNNEEAKWNKLMENLRTKINSYKKNKRTKDSEGAIKVLFDHLKETATICKDNNTNEACVSSQNATTNPC | 8.8 | 0.000328 | 37000
19 | CIDRα1.1 domain 2110-3 (patient isolate 2110) (domain or fragment) CPDCVVECVGGECKQKTDDDKNCRSKIIEEILKGEEPTVIDVLYSGNGQGVITKKLHDFCSSTNKEDDKYYKKWKCYNKNSDYNNCELISSLSTDPNDPNVMLSIKCFDSWARNLLVDALKWEHQLKNCINNTNVTDCKSNCNNNCKCYEEWIKRKGREWKQVKGVIENNDEGSHYYYKNVKNLFYNFLYPVIYKLEKEEKNGKWDQFMEDLKKKIESSETNTHTTDSQDAIELLLDHLKENAITCKDNNSLEEDKNC | 32 | 0.000511 | 15700

target: endothelial protein C receptor (EPCR), extracellular domain, biotinylated on the N-terminal BAP tag (human) (UniProt Q9UNN8); assay: SPR; Biacore T200; biotinylated EPCR captured on a CAP chip (Biotin Capture Kit) to 150 RU, fresh for each cycle; two-fold dilution series of each CIDRα1 injected for 240 s, dissociation 300 s; 20 mM HEPES pH 7.5, 150 mM NaCl, 0.005% Tween-20, 25°C; surface without EPCR subtracted; global fit to a 1:1 interaction model; conditions: not given

Row | Molecule | Kd [nM] | koff [s⁻¹] | kon [M⁻¹ s⁻¹]
20 | HB3var03 CIDRα1.4 domain, mutant F655Y (domain or fragment) | 0.5 | 0.000572 | 1.1e+06
21 | HB3var03 CIDRα1.4 domain, mutant F655L (domain or fragment) | 4.3 | 0.00063 | 145000
22 | HB3var03 CIDRα1.4 domain, mutant F656V (domain or fragment) | 1.5 | 0.000223 | 145000
23 | HB3var03 CIDRα1.4 domain, mutant V658A (domain or fragment) | 37 | 0.000719 | 19400
24 | HB3var03 CIDRα1.4 domain, mutant W669S (domain or fragment) | 11 | 0.000449 | 40100
25 | HB3var03 CIDRα1.4 domain, mutant F656Y (domain or fragment) | 1.9 | 0.000379 | 329000
26 | HB3var03 CIDRα1.4 domain, mutant Q657K (domain or fragment) | 72 | 0.00499 | 68900
27 | HB3var03 CIDRα1.4 domain, mutant F651A (domain or fragment) | 2.5 | 0.000394 | 160000
